Assay results taken from article PMC6684861 (Traffic (Copenhagen, Denmark), 2018).
No end group written: not given here.

Target: His-tagged murine Importin α1 with the Importin β binding domain (IBB) deleted (ImpαΔIBB) (murine, UniProt P52293 70-529)
Assay: crystal structure

Binder	binding result
Ac-SHLSPRKKRPRQTGAL [TdT NLS peptide for crystallization, Ac-S7HLSPRKKRPRQTGAL]	binds
Ac-RGILKAFPKRQKIHADASSKVLAKIPRRE [pol λ NLS peptide for crystallization, Ac-R4GILKAFPKRQKIHADASSKVLAKIPRRE]	binds
Ac-LPKRRRARVGSPSGDAASSTPPSTRFPGV [pol μ NLS peptide for crystallization, Ac-L2PKRRRARVGSPSGDAASSTPPSTRFPGV]	binds
